Test results taken from patent publication US20250197487A1 (AKESO BIOPHARMA, published 2025).

Legend:
[1] = molecular target: T1, PD-1 on the surface of 293T-PD-1 cells (UniProt Q15116 25-288, limits assumed); assay: FACS (2nd), 293T-PD-1 cells, antibody 100 nM
T1 construct: whole, on cells
Method: (§1) Then PBS was used for washing, and 300 μL of PBSA was used to resuspend the cells, and fluorescence signals (MFI) were detected with FITC channel on a flow cytometer.

[2] = molecular target: T1, PD-1 on the surface of 293T-PD-1 cells; assay: FACS (2nd), 293T-PD-1 cells, antibody 11 nM
Method: as §1

[3] = molecular target: T1, PD-1 on the surface of 293T-PD-1 cells; assay: FACS, 293T-PD-1 cells, antibody 3.70 nM
Method: as §1

[4] = molecular target: T1, PD-1 on the surface of 293T-PD-1 cells; assay: FACS (2nd), 293T-PD-1 cells, antibody 3.7 nM
Method: as §1

[5] = molecular target: T1, PD-1 on the surface of 293T-PD-1 cells; assay: competitive FACS (2nd), 293T-PD-1 cells, competitor PD-L1
Method: (§2) Then 500 μL of 1% PBSA was added, and the mixture was centrifuged at 5600 rpm for 5 minutes to remove the supernatant. 100 μL of FITC […] anti mouse antibody diluted at a ratio of 1:500 was then added into each tube, and the mixture was incubated on ice for 40 minutes in the absence of light after being mixed well. Then the mixture was centrifuged, washed and resuspended, and then transferred to a loading tube for testing.

[6] = molecular target: T1, PD-1 on the surface of 293T-PD-1 cells; assay: FACS (2nd), 293T-PD-1 cells, antibody 0.14 nM
Method: as §1

[7] = molecular target: T1, PD-1 on the surface of 293T-PD-1 cells; assay: FACS, 293T-PD-1 cells
Method: as §1

[8] = molecular target: T1, PD-1 on the surface of 293T-PD-1 cells; assay: FACS, 293T-PD-1 cells, antibody 11.11 nM
Method: as §1

[9] = molecular target: T1, PD-1 on the surface of 293T-PD-1 cells; assay: competitive FACS, 293T-PD-1 cells, competitor PD-L1-mFc 20 nM
Method: as §2

[10] = molecular target: T1, PD-1 on the surface of 293T-PD-1 cells; assay: FACS (2nd), 293T-PD-1 cells, antibody 30 nM
Method: as §1

[11] = molecular target: T1, PD-1 on the surface of 293T-PD-1 cells; assay: FACS, 293T-PD-1 cells, antibody 33.33 nM
Method: as §1

[12] = molecular target: T1, PD-1 on the surface of 293T-PD-1 cells; assay: FACS (2nd), 293T-PD-1 cells, antibody 1.23 nM
Method: as §1

fusion protein PD-1-hFc = molecular target: T2, fusion protein PD-1-hFc (UniProt Q15116 25-170); assay: competitive ELISA, PD-1-hFc coat 0.5 µg/mL, competitor PD-L1-mFc 0.3 µg/ml
T2 construct: not shown: hFc (Fc of human IgG)
Method: The microplate was coated with PD-1-hFc and incubated overnight at 4° C. […] After incubation at 37° C. for 30 minutes, the microplate was washed and patted dry. Then enzyme-labeled secondary antibody was added, and the microplate was incubated at 37° C. for 30 minutes. After the microplate was washed and patted dry, TMB was added for color developing for 5 minutes, and then stop solution was added to terminate the color development. […] SoftMax Pro 6.2.1 was used to analyze and process the data.

[13] = molecular target: T1, PD-1 on the surface of 293T-PD-1 cells; assay: FACS (2nd), 293T-PD-1 cells, antibody 0.41 nM
Method: as §1

[14] = molecular target: T1, PD-1 on the surface of 293T-PD-1 cells; assay: FACS, 293T-PD-1 cells, antibody 100 nM
Method: as §1

fusion protein PD-1-mFc [15] = molecular target: T3, fusion protein PD-1-mFc (human, UniProt Q15116 25-170); assay: indirect ELISA (2nd), PD-1-mFc coat 0.5 µg/mL
T3 construct: also called human PD-1-mFc; not shown: mFc (Fc of mouse IgG)
Method: (§3) The microplate was coated with human PD-1-mFc and incubated overnight at 4° C. After being blocked with 1% BSA at 37° C. for 2 hours, the microplate was added with antibody, and then incubated at 37° C. for 30 minutes. […] After the microplate was washed and patted dry, TMB (Neogen, 308177) was added for color developing for 5 minutes, and then stop solution was added to terminate the color development. Then the microplate was put into a microplate reader immediately, and the OD value of each well in the microplate was read at 450 nm. SoftMax Pro 6.2.1 was used to analyze and process the data.

[16] = molecular target: T1, PD-1 on the surface of 293T-PD-1 cells; assay: FACS, 293T-PD-1 cells, antibody 1.23 nM
Method: as §1

fusion protein PD-1-mFc [17] = molecular target: T3, fusion protein PD-1-mFc; assay: indirect ELISA, antibody 0 (blank)
fusion protein PD-1-mFc [18] = molecular target: T3, fusion protein PD-1-mFc; assay: BLI (Fortebio), antibody on AHC sensor, PD-1-mFc 0.62-50 nM, 1:1 fit
Method: The sample dilution buffer was PBS (0.02% Tween-20, 0.1% BSA, pH7.4). 5 μg/mL antibody was immobilized to an AHC sensor with the immobilization height being about […]. The sensor was equilibrated in a buffer for 60 s, and the antibody immobilized to the sensor bound to PD-1-mFc at a concentration of 0.62-50 nM (three-fold gradient dilution) for 120 s, and then the antigen and antibody dissociated in the buffer for 300 s. The data were analyzed by 1:1 model fitting to obtain affinity constants. The data acquisition software was Fortebio Data Acquisition 7.0, and the data analysis software was Fortebio Data Analysis 7.0.

fusion protein PD-1-mFc [19] = molecular target: T3, fusion protein PD-1-mFc; assay: indirect ELISA, PD-1-mFc coat 0.5 µg/mL
Method: as §3

[20] = molecular target: T1, PD-1 on the surface of 293T-PD-1 cells; assay: FACS, 293T-PD-1 cells, antibody 0.41 nM
Method: as §1

[21] = molecular target: T1, PD-1 on the surface of 293T-PD-1 cells; assay: FACS (2nd), 293T-PD-1 cells, antibody 0.014 nM
Method: as §1

[22] = molecular target: T1, PD-1 on the surface of 293T-PD-1 cells; assay: FACS (2nd), 293T-PD-1 cells
Method: as §1

[23] = molecular target: T1, PD-1 on the surface of 293T-PD-1 cells; assay: FACS, 293T-PD-1 cells, antibody 0.14 nM
Method: as §1

T3 sequence (Q15116 25-170): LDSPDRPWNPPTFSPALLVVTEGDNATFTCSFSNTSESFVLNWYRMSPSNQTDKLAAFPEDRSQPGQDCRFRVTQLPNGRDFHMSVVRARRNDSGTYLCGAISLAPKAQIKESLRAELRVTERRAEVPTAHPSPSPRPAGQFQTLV
T1 sequence (Q15116 25-288 limits assumed): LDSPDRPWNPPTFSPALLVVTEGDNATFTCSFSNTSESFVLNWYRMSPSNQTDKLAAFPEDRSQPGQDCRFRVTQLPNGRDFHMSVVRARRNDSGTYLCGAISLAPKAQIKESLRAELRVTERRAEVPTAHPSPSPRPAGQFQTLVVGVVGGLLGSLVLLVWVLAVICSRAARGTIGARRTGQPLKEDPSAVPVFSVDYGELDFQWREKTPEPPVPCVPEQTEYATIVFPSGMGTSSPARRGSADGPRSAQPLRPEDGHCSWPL
T2 sequence (Q15116 25-170): as the sequence (Q15116 25-170) above

B1: anti-PD-1 humanized antibody 14C12H1L1 (antibody, V domains shown)
VH: EVQLVESGGGLVQPGGSLRLSCAASGFAFSSYDMSWVRQAPGKGLDWVATISGGGRYTYYPDSVKGRFTISRDNSKNNLYLQMNSLRAEDTALYYCANRYGEAWFAYWGQGTLVTVSS
VL: DIQMTQSPSSMSASVGDRVTFTCRASQDINTYLSWFQQKPGKSPKTLIYRANRLVSGVPSRFSGSGSGQDYTLTISSLQPEDMATYYCLQYDEFPLTFGAGTKLELK
MFI [1]: 814 | MFI [2]: 868 | MFI [3]: 409 | MFI [4]: 423 | EC50 [5]: 9.21 nM | MFI [6]: 29.6 | EC50 [7]: 2.9 nM | MFI [8]: 600 | EC50 [9]: 4.37 nM | MFI [10]: 831 | MFI [11]: 655 | MFI [12]: 176 | EC50 (fusion protein PD-1-hFc): 0.745 nM | MFI [13]: 69.2 | MFI [14]: 671 | EC50 (fusion protein PD-1-mFc [15]): 0.045 nM | MFI [16]: 202 | OD 450 nm (fusion protein PD-1-mFc [17]): 0.053 | Kd (fusion protein PD-1-mFc [18]): 0.164 nM | EC50 (fusion protein PD-1-mFc [19]): 0.037 nM | MFI [20]: 99.7 | MFI [21]: 7.4 | EC50 [22]: 3.61 nM | MFI [23]: 48.1
